T1: streptokinase, P00779
T1 chain: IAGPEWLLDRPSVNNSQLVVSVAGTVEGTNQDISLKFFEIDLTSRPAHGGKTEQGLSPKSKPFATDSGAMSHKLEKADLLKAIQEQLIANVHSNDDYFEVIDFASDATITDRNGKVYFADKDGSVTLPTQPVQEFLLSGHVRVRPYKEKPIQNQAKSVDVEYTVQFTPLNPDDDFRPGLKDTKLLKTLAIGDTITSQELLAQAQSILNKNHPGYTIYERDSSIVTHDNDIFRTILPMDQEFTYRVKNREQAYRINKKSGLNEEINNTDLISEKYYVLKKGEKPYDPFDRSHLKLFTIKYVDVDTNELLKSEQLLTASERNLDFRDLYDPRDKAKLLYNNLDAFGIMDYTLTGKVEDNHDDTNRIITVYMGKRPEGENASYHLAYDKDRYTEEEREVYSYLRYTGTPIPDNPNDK

B1: loop 3 chimeric microplasminogen (protein)
chain: APSFDCGKPQVEPKKCPGRVVGGCVAHPHSWPWQVSLRLNGAHFCGGTLISPEWVLTAAHCLEKSPRPSSYKVILGAHQEVNLEPHVQEIEVSRLFLEPTRKDIALLKLSSPAVITDKVIPACLPSPNYVVADRTECFITGWGETQGTFGAGLLKEAQLPVIENKVCNRYEFLNGRVQSTELCAGHLAGGTDSCQGDSGGPLVCFEKDKYILQGVTSWGLGCARPNKPGVYVRVSRFVTWIEGVMRNN
B2: loop 7 chimeric microplasminogen (protein)
chain: APSFDCGKPQVEPKKCPGRVVGGCVAHPHSWPWQVSLRTRFGMHFCGGTLISPEWVLTAAHCLEKSPRPSSYKVILGAHQEVNLEPHVQEIEVSRLFLHPDSQPDTIDHDIALLKLSSPAVITDKVIPACLPSPNYVVADRTECFITGWGETQGTFGAGLLKEAQLPVIENKVCNRYEFLNGRVQSTELCAGHLAGGTDSCQGDSGGPLVCFEKDKYILQGVTSWGLGCARPNKPGVYVRVSRFVTWIEGVMRNN
B3: loop 5 chimeric microplasminogen (protein)
chain: APSFDCGKPQVEPKKCPGRVVGGCVAHPHSWPWQVSLRTRFGMHFCGGTLISPEWVLTAAHCLEDAADGKVKVILGAHQEVNLEPHVQEIEVSRLFLEPTRKDIALLKLSSPAVITDKVIPACLPSPNYVVADRTECFITGWGETQGTFGAGLLKEAQLPVIENKVCNRYEFLNGRVQSTELCAGHLAGGTDSCQGDSGGPLVCFEKDKYILQGVTSWGLGCARPNKPGVYVRVSRFVTWIEGVMRNN

Biological target: T1, streptokinase, P00779

Protein	activation of microplasminogen by streptokinase (S2251 cleavage, A405)
B1	all three loop mutants were not efficiently activated by the bacterial plasminogen activator streptokinase
B2	all three loop mutants were not efficiently activated by the bacterial plasminogen activator streptokinase
B3	all three loop mutants were not efficiently activated by the bacterial plasminogen activator streptokinase

Reference: patent publication US20040235115A1
